Data set [1] can be described thus: folding stability dG unfold from trypsin proteolysis; higher = more stable. The method, boiled down: (§1)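 Unfolding free energy was derived, per protease or combined, by relating Bayesian-fitted K50 values from sequencing counts to a sequence-predicted unfolded-state K50 and a shared folded-state K50. The underlying digests exposed cysteine-free mini-proteins under 80 residues, in a PA-tagged cDNA display construct, to trypsin and chymotrypsin at 11 threefold-diluted concentrations and to a no-protease condition. A filter kept only designs with AlphaFold2 dimer inter-PAE above 15.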

The nature of data set [2]: folding stability dG unfold (combined trypsin and chymotrypsin); higher = more stable. The method, boiled down:
as §1

A short description of data set [3]: folding stability dG unfold from chymotrypsin proteolysis; higher = more stable. In a few lines:
as §1

± gives the half width of the 95% confidence interval.

With “SAGGSALADRIKEIARENGFEPESVQFDPGNGHLMISIEPPDGRGVVVQIDIDNNNLKIQIQPLDDSAGGSA [r15_561_TrROS]”, the “folding stability dG unfold” value in data set [1] was 1.2 ± 0.075 kcal/mol; in data set [2], 1.03 ± 0.13 kcal/mol; in data set [3], 0.792 ± 0.099 kcal/mol.

Take “SAGGSALRIPPGEKIKVRNPDNGKPFEFKVTNWQMNPNGNAYFQVEMTSDGKKVKWPIPLDDIEVVSAGGSA [r15_62_TrROS]”: the “folding stability dG unfold” value in data set [1] was -0.397 ± 0.21 kcal/mol; in data set [2] it was 0.0757 ± 0.28 kcal/mol; in data set [3] it was 0.358 ± 0.37 kcal/mol.

In the case of “SAGGSAMAPNVRPIPIFIDVPAEPFTRDPDGRIGLTPEELARRLAEEIRARTGAPIDTIVVHFHEPSAGGSA [r15_415_TrMRF]”, the “folding stability dG unfold” value is 0.773 ± 0.11 kcal/mol in data set [1], 0.409 ± 0.092 kcal/mol in data set [2] and -0.0348 ± 0.18 kcal/mol in data set [3].

For “SAGGSAMAYLVRAELEVEGPDGRRERLELVLVAEDLPLEEALAAAREAAAELGAELVSVEVEPLEPSAGGSA [r15_550_TrMRF]”, the figures for the “folding stability dG unfold” value in data set [1], in data set [2] and in data set [3] were 0.858 ± 0.061 kcal/mol, 2.21 ± 0.098 kcal/mol and 2.55 ± 0.039 kcal/mol, respectively.

In the case of “SAGGSAMESFLGAAKEVLSQMEPGEIVLLPLERPDDKPLLVLLDPTTRRLVVFYPDGGYEEFDFPESAGGSA [r15_977_TrMRF]”, the “folding stability dG unfold” value came out at 2.74 ± 0.046 kcal/mol in data set [1], 2.86 ± 0.079 kcal/mol in data set [2] and 2.9 ± 0.064 kcal/mol in data set [3].

“SAGGSAMFKSPSDKYFEPIAVIDLEKASPETLKALLEENPGKLLVIPKSTGKPRLIPAEELLELLGSAGGSA [r15_904_TrMRF]”: the entries for the “folding stability dG unfold” value in data set [1], in data set [2] and in data set [3] were 0.0892 ± 0.21 kcal/mol, 0.0646 ± 0.2 kcal/mol and -0.154 ± 0.41 kcal/mol, respectively.

Regarding “SAGGSAMFVVVEVESPEELRELVEEEDPSVFLLPTEDGEERLVVVDPENPENIRVIPLERPELLAPSAGGSA [r15_11_TrMRF]”, the “folding stability dG unfold” value in data set [1] is 0.535 ± 0.042 kcal/mol; in data set [2] it was 0.27 ± 0.068 kcal/mol; in data set [3], -0.285 ± 0.27 kcal/mol.

Turning to “SAGGSAMGTLRLGFVTGPDEEGRYEILDVTLEPGEPVLVTLRARFTFPDGDSVEVPFRFVVPPELLSAGGSA [r15_187_TrMRF]”, the “folding stability dG unfold” value is 2.78 ± 0.038 kcal/mol in data set [1], 2.96 ± 0.12 kcal/mol in data set [2] and 3.15 ± 0.048 kcal/mol in data set [3].

For the sequence “SAGGSAMIEIEINGKKYKIEIVKVEEKDGKVKVKIKIKDKETGKEIEIEIEMPKEELEKLLKEILSSAGGSA [r15_944_TrROS_Hall]”, the results for the “folding stability dG unfold” value in data set [1], in data set [2] and in data set [3] were 2.79 ± 0.27 kcal/mol, 3.65 ± 0.48 kcal/mol and 3.97 ± 0.28 kcal/mol, respectively.

With “SAGGSAMIKIKLPNGEVAEIELSPDGKKVLIRYKDGSIEEIEIKDGKITKIKPLPNAPPNAEIVEVSAGGSA [r15_709_TrROS_Hall]”, the “folding stability dG unfold” value was 1.92 ± 0.029 kcal/mol in data set [1], 2.47 ± 0.077 kcal/mol in data set [2] and 2.72 ± 0.041 kcal/mol in data set [3].

Take “SAGGSAMITLEVEVPPGNAEEAAEAVAEELAEKLGVEVTIEKVEVEYDPVTNLTRVPVEIKINPPLSAGGSA [r15_70_JUSTAS]”: the “folding stability dG unfold” value in data set [1] was determined as 1.18 ± 0.071 kcal/mol; in data set [2], 0.618 ± 0.24 kcal/mol; in data set [3] it was 0.557 ± 0.11 kcal/mol.

As to “SAGGSAMITVDPGEKTVTVEIDLPVYKSYTYPGGETKAYPLELPEEEAKKVADEIAEAFKKKLEGESAGGSA [r15_365_JUSTAS]”, the “folding stability dG unfold” value in data set [1] is -0.499 ± 0.25 kcal/mol; in data set [2] it was 0.134 ± 0.24 kcal/mol; in data set [3] it was 0.49 ± 0.25 kcal/mol.

With “SAGGSAMITVKLEGKPVTVEILSREPKGRLVKAQAVVHRPDDGTEKTVSGLLSEEEIEKAIEEALASAGGSA [r15_944_JUSTAS]”, the “folding stability dG unfold” value in data set [1] was -0.917 ± 0.32 kcal/mol; in data set [2], -0.15 ± 0.12 kcal/mol; in data set [3], 0.143 ± 0.11 kcal/mol.

For the sequence “SAGGSAMKGLSVERVELDGEEVVRIEIETPAGGSETLELSLRDPEAVEAYLAALKAAGVIAEILPESAGGSA [r15_575_JUSTAS]”, the entries for the “folding stability dG unfold” value in data set [1], in data set [2] and in data set [3] were 1.24 ± 0.027 kcal/mol, 1.11 ± 0.14 kcal/mol and 0.713 ± 0.11 kcal/mol, respectively.

For “SAGGSAMKIEITVEKNENGELTITVKIYDKNGKLVKEIKLKVKTEEEAKKALKELAEKLGIEVEPESAGGSA [r15_242_TrROS_Hall]”, the “folding stability dG unfold” value in data set [1] came to 2.03 ± 0.48 kcal/mol; in data set [2], 3.36 ± 0.44 kcal/mol; in data set [3] it was 3.67 ± 0.16 kcal/mol.

For the sequence “SAGGSAMKKIKIEVEKKGDEYIVRIKIKNPDGKIEEIEIKLKDEEEAKKLAEELLKEGKIDEIELESAGGSA [r15_575_TrROS_Hall]”, the “folding stability dG unfold” value in data set [1] is 2.7 ± 0.18 kcal/mol; in data set [2], 2.57 ± 0.18 kcal/mol; in data set [3], 2.29 ± 0.077 kcal/mol.

Regarding “SAGGSAMKKTITVTLSYPETGETRTVTVELTDIPESDPEKWKALAEEVAEALAKERGAEVLGIEISSAGGSA [r15_1013_JUSTAS]”, the “folding stability dG unfold” value in data set [1] worked out at 4.9 ± 0.14 kcal/mol; in data set [2] it was 4.72 ± 0.065 kcal/mol; in data set [3], 4.6 ± 0.066 kcal/mol.

Consider “SAGGSAMKKTTATFYVRPDSLTVEIELGEKTKKLTFDPSVSIEEVKASLPDYVDEVKVKPASPSLSSAGGSA [r15_1058_JUSTAS]”, for which the “folding stability dG unfold” value in data set [1] is -0.43 ± 0.24 kcal/mol; in data set [2], 0.242 ± 0.14 kcal/mol; in data set [3], 0.529 ± 0.27 kcal/mol.

With “SAGGSAMKKVTVTVKFPDGTTYTFDMDTESEEEFEKKVREEALKRFPDIPLEDVEVTEVVVTPELLSAGGSA [r15_220_JUSTAS]”, the “folding stability dG unfold” value came out at 2.3 ± 0.16 kcal/mol in data set [1], 2.33 ± 0.12 kcal/mol in data set [2] and 2.38 ± 0.039 kcal/mol in data set [3].

Consider “SAGGSAMKLVLTFPEGLPEIPLEELAKAIEDALPEDFEVKEIKVEPLPDGGLRLTFIVNDEEVEILSAGGSA [r15_451_TrMRF]”, for which the “folding stability dG unfold” value in data set [1] stood at 2.52 ± 0.062 kcal/mol; in data set [2], 2.54 ± 0.048 kcal/mol; in data set [3], 2.52 ± 0.017 kcal/mol.

Regarding “SAGGSAMKPGEPVEFNIMIKIRDPNGKPVGEIDIKVEYPKGQSESQMFDRARNEINNLAPEGHLEISAGGSA [r15_310_TrROS]”, the “folding stability dG unfold” value in data set [1] amounted to 0.0892 ± 0.087 kcal/mol; in data set [2] it was 0.396 ± 0.14 kcal/mol; in data set [3] it was 0.486 ± 0.21 kcal/mol.

On to “SAGGSAMKVIRIRPDDPRVKELLKKLEDAGYEVRYDEETGELYVTLPDGKVLKFKSLEELKKAGFESAGGSA [r15_94_TrROS_Hall]”, for which the “folding stability dG unfold” value in data set [1] was found to be 1.63 ± 0.029 kcal/mol; in data set [2] it was 1.93 ± 0.088 kcal/mol; in data set [3] it was 2.19 ± 0.1 kcal/mol.

On to “SAGGSAMKVVFYGDEASQKEIAEKAKKEGIEYEAYPGSREEILAYVKENYPDVKMIVYPEGKEYLISAGGSA [r15_712_JUSTAS]”, for which the results for the “folding stability dG unfold” value in data set [1], in data set [2] and in data set [3] were 0.0902 ± 0.072 kcal/mol, 0.179 ± 0.073 kcal/mol and 0.094 ± 0.18 kcal/mol, respectively.

“SAGGSAMPADEVVEVREITDPATGKKVTVVRNKETGRYFVRVENPDGETEVFEVPGMTAEELEELASAGGSA [r15_295_TrROS_Hall]”: the “folding stability dG unfold” value in data set [1] was 2.33 ± 0.056 kcal/mol; in data set [2], 2.51 ± 0.1 kcal/mol; in data set [3], 2.6 ± 0.051 kcal/mol.

In the case of “SAGGSAMPGMTLQELLDAIRALLPPGARARIYVRNPDGEVIELTDLDDITVEDLENAEIRIEIEPVSAGGSA [r15_144_TrROS_Hall]”, the entries for the “folding stability dG unfold” value in data set [1], in data set [2] and in data set [3] were 3.7 ± 0.1 kcal/mol, 3.88 ± 0.076 kcal/mol and 4.01 ± 0.052 kcal/mol, respectively.

As to “SAGGSAMPIELDLVIEIPIDAHPDQTVEDLVEEIAERIRRLLPPDTVVELRVHLHPELGVALADVSSAGGSA [r15_739_TrMRF]”, the “folding stability dG unfold” value in data set [1] was 1.56 ± 0.039 kcal/mol; in data set [2], 0.988 ± 0.081 kcal/mol; in data set [3] it was 0.117 ± 0.087 kcal/mol.

For the sequence “SAGGSAMPKFYLDENGNPVYELPEEPTINTPLKIGIFDEENNPAIEIEIPGSTPLEEIIQKIKDAASAGGSA [r15_309_TrMRF]”, the “folding stability dG unfold” value was 0.674 ± 0.065 kcal/mol in data set [1], 0.677 ± 0.2 kcal/mol in data set [2] and 0.483 ± 0.14 kcal/mol in data set [3].

On to “SAGGSAMPPGEPIGSFSFPFNNGGNLMISAYPGGEIKISWWGPDGRPHEHEFPVKVKPPPPEDEGKSAGGSA [r15_478_TrROS]”, for which the “folding stability dG unfold” value in data set [1] worked out at 1.33 ± 0.053 kcal/mol; in data set [2], 1.6 ± 0.19 kcal/mol; in data set [3] it was 1.64 ± 0.07 kcal/mol.

As for “SAGGSAMPPNMKKVPISIHIPAENYKRDPDGKWKFTADELARHIQRGFRQRFGMPIKKIDVHVHPPSAGGSA [r15_415_TrROS]”, the entries for the “folding stability dG unfold” value in data set [1], in data set [2] and in data set [3] were -0.000463 ± 0.31 kcal/mol, -0.0271 ± 0.21 kcal/mol and 0.00448 ± 0.31 kcal/mol, respectively.

With “SAGGSAMRMERIKLPDGKDITIMRHPNEPRQYQLFFPGGRSISVNFPSPEEAIDHALEWIKNGKPFSAGGSA [r15_38_TrROS]”, the “folding stability dG unfold” value was found to be 0.609 ± 0.12 kcal/mol in data set [1], 0.78 ± 0.097 kcal/mol in data set [2] and 0.764 ± 0.13 kcal/mol in data set [3].

“SAGGSAMSIPLEELIEYVKKPGYKITEKKLPNGTLEITITNPKTGKTTKVTVYPPPTFSVEIKPDPSAGGSA [r15_442_JUSTAS]”: the “folding stability dG unfold” value in data set [1] is 1.28 ± 0.034 kcal/mol; in data set [2], 1.07 ± 0.091 kcal/mol; in data set [3], 0.876 ± 0.12 kcal/mol.

In the case of “SAGGSAMSKDVLFENGARITKFFPGKNYVIIETSPENPELLKELGITVIKEGPNRIIVPAKDFLDESAGGSA [r15_984_TrMRF]”, the “folding stability dG unfold” value in data set [1] was -1.28 ± 0.74 kcal/mol; in data set [2], -0.864 ± 0.8 kcal/mol; in data set [3] it was -0.821 ± 0.78 kcal/mol.

As for “SAGGSAMSLSDIKDVDVYRNPNGWYTAKLKIKDPNNGKDKEVNIHVPPGQTPEKAKNIAREILKELSAGGSA [r15_181_TrROS]”, the “folding stability dG unfold” value in data set [1] amounted to 0.606 ± 0.03 kcal/mol; in data set [2], 1.14 ± 0.086 kcal/mol; in data set [3] it was 1.43 ± 0.11 kcal/mol.

As for “SAGGSAMSVDPVGERTTITILYKDKPVTVPTGPLEEVEREVAAVLEEIEAKTGRKISPDTEVSFVPSAGGSA [r15_496_JUSTAS]”, the results for the “folding stability dG unfold” value in data set [1], in data set [2] and in data set [3] were -0.283 ± 0.3 kcal/mol, 0.318 ± 0.16 kcal/mol and 0.595 ± 0.17 kcal/mol, respectively.

For “SAGGSAMTAEELARKLFPGAEVEVEVRLERNEDGSLSLRVEVRVRAAPPPEEEEVEEPEEVEEEEESAGGSA [r15_417_TrROS_Hall]”, the results for the “folding stability dG unfold” value in data set [1], in data set [2] and in data set [3] were 2.78 ± 0.16 kcal/mol, 2.2 ± 0.28 kcal/mol and 1.99 ± 0.052 kcal/mol, respectively.

The record behind these values is the supplement of paper PMC12764529.
